Measured values as given in PMC3669277, “Interactions between the R2R3-MYB Transcription Factor, AtMYB61, and Target DNA Binding Sites”.

B1: ACCTAC (AC-I) (dsDNA)
DNA 1: ACATTGGGCGAGAAAAGCTGATCCCCACCTACCCGGGCTATCTCCCCCTCCTCCTCCGATCTG
DNA 2: CAGATCGGAGGAGGAGGGGGAGATAGCCCGGGTAGGTGGGGATCAGCTTTTCTCGCCCAATGT
B2: ACCAAC (dsDNA)
DNA 1: ACATTGGGCGAGAAAAGCTGATCCCCACCAACCCGGGCTATCTCCCCCTCCTCCTCCGATCTG
DNA 2: CAGATCGGAGGAGGAGGGGGAGATAGCCCGGGTTGGTGGGGATCAGCTTTTCTCGCCCAATGT
B3: ACCTAG (AC-I mutant, C6G) (dsDNA)
DNA 1: ACATTGGGCGAGAAAAGCTGATCCCCACCTAGCCGGGCTATCTCCCCCTCCTCCTCCGATCTG
DNA 2: CAGATCGGAGGAGGAGGGGGAGATAGCCCGGCTAGGTGGGGATCAGCTTTTCTCGCCCAATGT
B4: ACCAAT (dsDNA)
DNA 1: ACATTGGGCGAGAAAAGCTGATCCCCACCAATCCGGGCTATCTCCCCCTCCTCCTCCGATCTG
DNA 2: CAGATCGGAGGAGGAGGGGGAGATAGCCCGGATTGGTGGGGATCAGCTTTTCTCGCCCAATGT
B5: ACCACA (dsDNA)
DNA 1: ACATTGGGCGAGAAAAGCTGATCCCCACCACACCGGGCTATCTCCCCCTCCTCCTCCGATCTG
DNA 2: CAGATCGGAGGAGGAGGGGGAGATAGCCCGGTGTGGTGGGGATCAGCTTTTCTCGCCCAATGT
B6: ACCGAC (AC-I mutant, T4G) (dsDNA)
DNA 1: ACATTGGGCGAGAAAAGCTGATCCCCACCGACCCGGGCTATCTCCCCCTCCTCCTCCGATCTG
DNA 2: CAGATCGGAGGAGGAGGGGGAGATAGCCCGGGTCGGTGGGGATCAGCTTTTCTCGCCCAATGT
B7: ACCATA (dsDNA)
DNA 1: ACATTGGGCGAGAAAAGCTGATCCCCACCATACCGGGCTATCTCCCCCTCCTCCTCCGATCTG
DNA 2: CAGATCGGAGGAGGAGGGGGAGATAGCCCGGTATGGTGGGGATCAGCTTTTCTCGCCCAATGT
B8: ACCACC (dsDNA)
DNA 1: ACATTGGGCGAGAAAAGCTGATCCCCACCACCCCGGGCTATCTCCCCCTCCTCCTCCGATCTG
DNA 2: CAGATCGGAGGAGGAGGGGGAGATAGCCCGGGGTGGTGGGGATCAGCTTTTCTCGCCCAATGT
B9: ACCAAA (dsDNA)
DNA 1: ACATTGGGCGAGAAAAGCTGATCCCCACCAAACCGGGCTATCTCCCCCTCCTCCTCCGATCTG
DNA 2: CAGATCGGAGGAGGAGGGGGAGATAGCCCGGTTTGGTGGGGATCAGCTTTTCTCGCCCAATGT
B10: ACCTGC (AC-I mutant, A5G) (dsDNA)
DNA 1: ACATTGGGCGAGAAAAGCTGATCCCCACCTGCCCGGGCTATCTCCCCCTCCTCCTCCGATCTG
DNA 2: CAGATCGGAGGAGGAGGGGGAGATAGCCCGGGCAGGTGGGGATCAGCTTTTCTCGCCCAATGT
B11: NBS (non-binding site, GAGACC) (dsDNA)
DNA 1: ACATTGGGCGAGAAAAGCTGATCCCCGAGACCCCGGGCTATCTCCCCCTCCTCCTCCGATCTG
DNA 2: CAGATCGGAGGAGGAGGGGGAGATAGCCCGGGGTCTCGGGGATCAGCTTTTCTCGCCCAATGT

target: T1, AtMYB61 (Arabidopsis thaliana, UniProt Q8VZQ2 1-366); experiment: filter binding; Buffer, salt, pH and temperature not stated (filter binding per Hall and Kranz; EMSA per earlier work); filter binding with 1065 nM probe (124.41 ng, 60 bp) in; details: protein: recombinant; tags: pET15b (NdeI/BamHI) fusion
T1 sequence (Q8VZQ2 whole entry, the tested form may be a part): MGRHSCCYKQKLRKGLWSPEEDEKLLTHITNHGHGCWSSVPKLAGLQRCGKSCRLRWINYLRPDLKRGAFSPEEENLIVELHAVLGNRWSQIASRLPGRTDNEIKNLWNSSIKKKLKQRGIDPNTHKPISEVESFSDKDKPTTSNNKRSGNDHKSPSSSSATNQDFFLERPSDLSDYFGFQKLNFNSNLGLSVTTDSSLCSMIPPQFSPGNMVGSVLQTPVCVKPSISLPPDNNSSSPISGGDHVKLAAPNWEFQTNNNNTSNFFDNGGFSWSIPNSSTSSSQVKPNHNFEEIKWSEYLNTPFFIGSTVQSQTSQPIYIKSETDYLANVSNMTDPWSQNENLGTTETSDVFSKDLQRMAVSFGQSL

Row | Binder | Kd [nM]
1 | B1 | 9.12
2 | B2 | 73.7
3 | B3 | 56
4 | B4 | 12.1
5 | B5 | 80.8
6 | B6 | 719
7 | B7 | 18.3
8 | B8 | 690
9 | B9 | 16.8
10 | B10 | 79.7

target: T1, AtMYB61; experiment: EMSA; 5E-08 M protein; Buffer, salt, pH and temperature not stated (filter binding per Hall and Kranz; EMSA per earlier work); filter binding with 1065 nM probe (124.41 ng, 60 bp) in; details: protein: recombinant; tags: pET15b (NdeI/BamHI) fusion

Row | Binder | binding result
11 | B11 | no binding
